In patent US20090053745A1 (RUTGERS THE STATE UNIVERSITY OF NEW JERSEY, published 2009):

T1: GST-cypin (UniProt Q9WTT6 1-454)
T1 construct: Expressed in E. coli, purified on glutathione sepharose, eluted with glutathione and dialysed; No removal of GST is reported; also called purified cypin; not shown: glutathione S-transferase (GST) fusion partner
T1 sequence (looked up): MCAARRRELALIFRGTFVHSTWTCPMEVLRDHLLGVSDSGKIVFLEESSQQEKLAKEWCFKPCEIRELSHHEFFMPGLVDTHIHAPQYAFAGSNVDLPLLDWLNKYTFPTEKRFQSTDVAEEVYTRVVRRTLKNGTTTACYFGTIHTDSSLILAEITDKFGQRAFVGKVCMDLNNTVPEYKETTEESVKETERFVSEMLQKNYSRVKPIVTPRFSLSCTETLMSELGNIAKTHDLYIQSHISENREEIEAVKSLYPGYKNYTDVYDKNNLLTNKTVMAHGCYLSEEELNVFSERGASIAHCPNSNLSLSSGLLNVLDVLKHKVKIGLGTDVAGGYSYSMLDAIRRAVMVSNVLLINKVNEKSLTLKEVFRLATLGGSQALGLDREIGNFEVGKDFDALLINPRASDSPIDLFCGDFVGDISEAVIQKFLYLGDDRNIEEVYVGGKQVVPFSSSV

T2: cypin (endogenous, rat brain extract) (rat, UniProt Q9WTT6 1-454)
T2 sequence (looked up): T1 sequence (looked up)

B1: GST-snapin (first 68 amino acids) (other)
chain: MAGAGSAAVSGAGTPVAGPTGRDLFAEGLLEFLRPAVQQLDSHVHAVRESQVELREQIDNLATELCRI
notes: also called snapin(1-68); N-terminal half of snapin; not shown: glutathione S-transferase (GST) fusion partner
B2: snapin (endogenous, rat brain extract) (other, UniProt P60192 2-136, looked up)
chain: AAAGSAAVSGAGTPVAGPTGRDLFAEGLLEFLRPAVQQLDSHVHAVRESQVELREQIDNLATELCRINEDQKVALDLDPYVKKLLNARRRVVLVNNILQNAQERLRRLNHSVAKETARRRAMLDSGVYPPGSPSK
notes: The smaller band may be a degradation product or a modified snapin

What was measured:
[1] = target: T1, GST-cypin; test: competition co-immunoprecipitation of purified cypin (2 µM) and tubulin heterodimers (7 µM); ligand to be displaced: tubulin heterodimers; strip labelled α-Tubulin on the sheet
Protocol: GST, GST-cypin, and GST-snapin were expressed in E. coli and purified using glutathione sepharose as previously described (Firestein et al., 1999). Purified proteins were eluted from the beads using glutathione and dialyzed against phosphate buffered saline. Purified cypin (2 μM) and the indicated concentrations of purified snapin were mixed with tubulin heterodimers (7 μM) in PEM buffer (80 mM PIPES, pH 6.9, 2 mM MgCl₂, 0.5 mM EGTA) containing 5% glycerol for 4-6 hours at 4° C. The mixtures were subjected to immunoprecipitation using a monoclonal antibody raised against tubulin. Binding of purified proteins was assayed by SDS-PAGE followed by Western blotting using a rabbit polyclonal antibody raised against cypin (Akum et al., 2004).
Since snapin binds to cypin's CRMP homology domain, which is responsible for binding tubulin heterodimers (Akum et al., 2004), it is possible that snapin could compete tubulin binding to cypin. To address this question, co-immunoprecipitation of purified cypin and tubulin heterodimers in the presence of full-length snapin or the N-terminal half of snapin (amino acids 1-68) was performed. No association of snapin with tubulin heterodimers by co-immunoprecipitation or affinity chromatography was found in the previous experiments (data not shown). […]

[2] = target: T2, cypin (endogenous, rat brain extract); test: GST affinity chromatography with rat brain extract
Protocol: COS-7 cells were transfected with either pEGFP-C1-snapin, pDsRed-N1-snapin, pEGFP-C1-cypin or pDsRed-N1-cypin using Lipofectamine 2000 (Invitrogen, Carlsbad, Calif.) as described by manufacturer. Cells were washed with cold PBSE (phosphate buffered saline and 1 mM EDTA) and scraped into 5 mL of TEEN (25 mM Tris-HCl, pH 7.4, 1 mM EDTA, 1 mM EGTA, 100 mM NaCl). Cells were homogenized using a Potter-Elvehjem tissue grinder (20 strokes). Phenylmethylsulfonyl fluoride and DTT were added to lysates to final concentrations of 1 mM and cells were further lysed by passing the extract through a 25 gauge needle 5 times. Lysates were centrifuged at 12,000×g for 10 minutes at 4° C. Triton X-100 was added to the supernatant to a final concentration of 1% and incubated at 4° C. for 30 minutes. Lysates were centrifuged at 12,000×g for 10 minutes at 4° C. COS-7 cell lysates were incubated with glutathione-sepharose beads bound to 25 μg of the appropriate GST-fusion proteins for 1 hour at 4° C. Beads were washed three times with TEEN. Bound proteins were eluted with 0.5% SDS and 100 mM NaCl. Proteins were resolved on a 10% SDS polyacrylamide gel and transferred to PVDF membrane. Blots were probed with the indicated antibodies. For experiments using rat brain extracts, the extracts were prepared exactly as described above except that they were not passed through a 25 gauge needle. […]

[3] = target: PSD-95 (endogenous, rat brain extract) (rat, UniProt P31016 1-724, limits assumed); test: co-immunoprecipitation from rat brain extract with anti-snapin
PSD-95 (endogenous, rat brain extract), sequence (P31016 whole entry): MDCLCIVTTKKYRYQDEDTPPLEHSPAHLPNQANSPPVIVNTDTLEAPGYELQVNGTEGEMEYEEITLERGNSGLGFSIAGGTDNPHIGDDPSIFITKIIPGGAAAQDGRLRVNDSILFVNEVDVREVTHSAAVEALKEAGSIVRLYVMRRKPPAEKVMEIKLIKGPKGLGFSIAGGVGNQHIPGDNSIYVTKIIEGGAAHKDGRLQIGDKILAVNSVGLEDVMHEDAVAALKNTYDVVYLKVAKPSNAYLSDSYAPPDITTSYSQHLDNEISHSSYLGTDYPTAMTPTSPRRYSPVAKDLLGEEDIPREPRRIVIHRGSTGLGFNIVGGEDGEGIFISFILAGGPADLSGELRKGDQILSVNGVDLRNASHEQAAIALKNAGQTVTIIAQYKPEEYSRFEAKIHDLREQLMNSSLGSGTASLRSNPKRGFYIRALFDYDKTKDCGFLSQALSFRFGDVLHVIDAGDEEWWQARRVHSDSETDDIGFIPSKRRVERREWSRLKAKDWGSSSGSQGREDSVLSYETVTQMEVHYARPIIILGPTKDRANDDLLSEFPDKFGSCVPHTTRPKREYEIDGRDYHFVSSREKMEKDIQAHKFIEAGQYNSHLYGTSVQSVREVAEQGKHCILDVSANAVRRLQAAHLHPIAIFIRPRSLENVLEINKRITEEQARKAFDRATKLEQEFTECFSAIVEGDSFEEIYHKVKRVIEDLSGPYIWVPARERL
Protocol: (§1) For co-immunoprecipitation studies, one rat brain was homogenized in 10 ml of TEE (25 mM Tris, 1 mM EGTA, 1 mM EDTA)+1 mM PMSF. Triton X-100 was added to a final concentration of 1% and proteins were extracted for 1 hour at 4° C. The extract was centrifuged at 12,000×g to remove insoluble material and the supernatant was incubated with either anti-cypin, anti-snapin, preimmune serum, rabbit IgG, anti-tubulin, or mouse IgG. Protein A beads were added and after a 1 hour incubation, the beads were washed with TEE+0.2% Triton X-100. Immunoprecipitated proteins were eluted with protein loading buffer and resolved by SDS-PAGE and transferred to PVDF membrane. Blots were probed with the indicated antibodies. Experiments were performed in duplicate or triplicate.

[4] = target: SNAP-25 (endogenous, rat brain extract) (rat, UniProt P60881 1-206); test: as above
SNAP-25 (endogenous, rat brain extract), sequence (P60881 whole entry): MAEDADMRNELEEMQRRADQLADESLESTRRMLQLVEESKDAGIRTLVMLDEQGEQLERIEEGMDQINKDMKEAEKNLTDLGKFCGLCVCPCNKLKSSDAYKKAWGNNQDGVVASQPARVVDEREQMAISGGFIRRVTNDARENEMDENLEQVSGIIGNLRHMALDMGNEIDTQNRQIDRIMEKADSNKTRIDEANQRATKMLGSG
Protocol: as §1

| Binder | binding result [1] | binding result [2] | binding result [3] | binding result [4] |
| --- | --- | --- | --- | --- |
| B1 | no binding (tested: 4 µM) | no binding |  |  |
| B2 |  |  | no binding | no binding |
